Data as given in patent US20260069689A1 (Regeneron, published 2026).
Numbering of substitutions follows the chain as printed.

B1: mAb15164 (antibody, V domains shown)
VH: EVQLVESGGGLVQPGGSLRLSCAASGFAVSSNYMTWVRQAPGKGLEWVATIYSGDSTYYADSVKGRFTISRHNSKNTLSLQMNSLRADDTAIYYCARLSGVLSGTYNGAFDIWGQGTMVTVSS
VL: QSALTQPASVSGSPGQSITISCTGTSSDFGNYNIVSWYQQHPGQAPKVMIYEGNKRPSGVSNRFSGSKSGHTASLTISGLQAEDEADYYCSSYAGSSTWVFGGGTKLTVLG
B2: mAb15166 (antibody, V domains shown)
VH: EVQLVESGGGLVQPGGSLRLSCAASGFTVTSNYMSWVRQAPGKGLEWVSAIYSGESTYYADSVKGRFTISRDSSKNTLYLQMNSLRVEDTAVYYCASIHDYSNYVGGFDPWGQGTLVTVSS
VL: B1 VL with T25P, N31S, I34L, Q44K, V48L, N54T, H71N
B3: mAb15165 (antibody, V domains shown)
VH: EVQLVESGGGLVQPGGSLRLSCAASGFTVSSNYMSWVRQAPGKGLEWVSAIYSGDSTYYADSVKGRFTISKDNSKNTLYLQMNSLRGEDTAVYYCARLGGALQAYDGAFDYWGQGTLATVSS
VL: B1 VL with N31S, I34L, Q44K, V48L, N62I, H71N
B4: mAb15162 (antibody, V domains shown)
VH: EVQLVETGGGLIQPGGSLRLSCAASEFIVSRNYMSWVRQAPGKGLEWVSLIYSGGSTYYADSVKGRFTISRDNSKNILYLQMNSLRAEDTAVYYCARDRGGISDYWGQGTLVTVSS
VL: DIQMTQSPSSLSASVGDRVTITCQASQDINKYLNWFQQKPGKAPKLLIYDASNLETGVPSRFSGSGSGTDFTFTISSLQPEDIATYYCQQYDNLPRTFGQGTKLEIKR
B5: mAb15160 (antibody, V domains shown)
VH: EVQLVESGGGLVQPGGSLRLSCSASGFTFSRYAMYWVRQAPGKGLEYVSAISSDGGSTYDADSVKGRFTISRANSKNTLYLQMSSLRAEDTAVYYCVKGLRELLYYYYGMDVWGQGTTVTVSS
VL: DIQMTQSPSSLSASVGDRVTITCRAGQSISSFLNWYQQKPGKAPKLLIYAASSLQSGVPSRFSGSGSGTDFTLTISSLQPEDFATYYCQQSYITPFTFGPGTKVDIKR
B6: mAb15151 (antibody, V domains shown)
VH: QVQLVESGGGVVQPGRSLRLSCAASGFVFNSYGMHWVRQAPGKGLEWVAVLWYEGSKNYYADSVKGRFTISRDNSKNTLYLQMNSLRAEDTAVYYCARHGSGSFFGYYLDYWGQGTLVTVSS
VL: DIQMTQSPSSLSASVGDRVTITCRASHNINDFLNWYQQKPGKAPRLLIYAASSLQSGVPSRFSGSGSGTDFTLTISSLQPEDFATYYCQESYTTPPTFGQGTKLEIKR
B7: mAb15157 (antibody, V domains shown)
VH: EVQLVESGGALVQPGGSLRLSCAASGFPFTIYAMTWVRQAPGKGLEWVSVITGSGDSTYYADSVKGRFTISRDNSKNTLYLQMNSLRAEDTAVYYCVKTGEGFFYYYYGMDVWGQGTTVTVSS
VL: QSVLTQPPSVSAAPGQKVTISCSGSSSNIGNSYISWYQQLPGTAPKLLIYVNNKRPSGIPDRFSGSKSGTSATLGITGLQTGDEADYYCGTWDSSLSAGVFGSGTKVTVLG
B8: mAb15158 (antibody, V domains shown)
VH: EVQLVESGGGLVQPGGSLRLSCAASGFSFSSNWMSWVRQAPGKGLEWVGNINQDGSEKYYVDSVEGRFTISRDNAKKSLYLQMNSLRAEDTAVYYCARDLGVLWFGDFVDWGQGALVTVSS
VL: DIQMTQSPSSLSASVGDRVTITCRASQAISNSLAWYQQKPGKAPKLLLYAASTLESGVPSRFSGSGSGTDYTLTISSLQPEDFATYYCLQYYGSPRTFGQGTKVEIKR
B9: mAb15161 (antibody, V domains shown)
VH: EVQLVESGGGLVQPGGSLRLSCAASGFTFSSYEMNWVRQAPGKGLEWVSYISSSGSILYYADSVKGRFTASRDNAKNSLYLQMNSLRAEDTGVYYCARREYQLLRPFEFWGQGTLVTVSS
VL: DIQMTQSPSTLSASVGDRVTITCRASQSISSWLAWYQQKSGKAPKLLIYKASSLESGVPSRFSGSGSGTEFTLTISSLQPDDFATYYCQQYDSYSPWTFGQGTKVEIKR
B10: mAb15156 (antibody, V domains shown)
VH: QLQLQESGPGLVKSSETLSLTCTVSASITGSTYYWGWIRQPPGKGLEWIGSIYYSGTTYYKASLKSRVTISVDTSKNQFSLKLTSVTVADTAVYYCVSHLLGNYHKYGMDVWGQGTTVTVSS
VL: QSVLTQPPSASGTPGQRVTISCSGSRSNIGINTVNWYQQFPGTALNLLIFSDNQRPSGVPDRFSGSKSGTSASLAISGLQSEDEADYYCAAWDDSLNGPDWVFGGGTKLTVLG
B11: mAb15159 (antibody, V domains shown)
VH: EVQLVESGGGLVQPGGSLRLSCAASGITVSSNYMTWVRQAPGKGLEWVSLIYSGGSTFYADSVRGRFTISRDNSKNTLYLQMNSLRAEDTAVYYCARDLVVYGMDVWGQGTTVTVSS
VL: DIQLTQSPSSLSASVGDRVTITCRASQGISSYLAWYQQKPGKAPKLLIYAASTLQSGVPSRFSGSGSGTDFTLTISSLQPEDFATYYCQHLNSDPHTFGQGTKLEIKR
B12: mAb15170 (antibody, V domains shown)
VH: B11 VH with S25T, T35S, R64K, D72H, N83S, V101D, Y102F
VL: B11 VL with S31N, A84G, H90Q, P95S, H96P, L104V
B13: mAb15163 (antibody, V domains shown)
VH: EVQLVETGGGLIQPGESLRLSCAASGFIVSTNYMNWVRQAPGKGLEWVSVIYRGGSTYYADSVKGRFTISRDNSKNTLFLQMNSLRAEDTAVYYCARGHEDFDYDTPASGAFDIWGQGTMVTVSS
VL: QSALTQPPSASGSPGQSVTISCTGTSSDVGGHNYVSWYQQHPGKAPKVMIYEVSKRPSGVPDRFSGSKSGNTASLTVSGLQAEDEADYYCSSYAGSNKFVFGTGTKVTVLG

The binders below were run against T1, SARS-COV-2 RBD extracellular domain expressed with a C-terminal mouse IgG2a Fc (SARS-CoV-2) (assay: Biacore SPR, mAb captured on anti-hFc, 37 C).

Question: With B1 as the binder, how does the Kd read?
Answer: 0.0518 nM

Question: What about the koff of the same binder?
Answer: 9.4e-05 s⁻¹

Question: What about the kon of the same binder?
Answer: 1.82e+06 M⁻¹ s⁻¹

Question: And the t½?
Answer: 123 min

Question: B2 was tested. Which Kd did it give?
Answer: 0.126 nM

Question: What about the koff of the same binder?
Answer: 9.8e-05 s⁻¹

Question: What about the kon of the same binder?
Answer: 781000 M⁻¹ s⁻¹

Question: And the t½?
Answer: 118 min

Question: Which Kd does the source give for B3 here?
Answer: 0.45 nM

Question: And the koff?
Answer: 4.55e-05 s⁻¹

Question: What about the kon of the same binder?
Answer: 100000 M⁻¹ s⁻¹

Question: What about the t½ of the same binder?
Answer: 254 min

Question: B4 was tested. Which Kd did it give?
Answer: 0.5 nM

Question: And the koff?
Answer: 0.000101 s⁻¹

Question: And the kon?
Answer: 200000 M⁻¹ s⁻¹

Question: What about the t½ of the same binder?
Answer: 115 min

Question: With B5 as the binder, how does the Kd read?
Answer: 0.181 nM

Question: What about the koff of the same binder?
Answer: 7.9e-05 s⁻¹

Question: What about the kon of the same binder?
Answer: 436000 M⁻¹ s⁻¹

Question: And the t½?
Answer: 146 min

Question: B6 was tested. Which Kd did it give?
Answer: 0.85 nM

Question: What about the koff of the same binder?
Answer: 0.0031 s⁻¹

Question: What about the kon of the same binder?
Answer: 3.7e+06 M⁻¹ s⁻¹

Question: And the t½?
Answer: 3.7 min

Question: How did the Kd turn out when B7 was run?
Answer: 0.116 nM

Question: What about the koff of the same binder?
Answer: 0.000107 s⁻¹

Question: And the kon?
Answer: 922000 M⁻¹ s⁻¹

Question: What about the t½ of the same binder?
Answer: 108 min

Question: For B8, which Kd is on record?
Answer: 0.17 nM

Question: And the koff?
Answer: 2.9e-05 s⁻¹

Question: And the kon?
Answer: 171000 M⁻¹ s⁻¹

Question: What about the t½ of the same binder?
Answer: 398 min

Question: B9 was tested. Which Kd did it give?
Answer: 0.0469 nM

Question: And the koff?
Answer: 4.9e-05 s⁻¹

Question: And the kon?
Answer: 1.05e+06 M⁻¹ s⁻¹

Question: And the t½?
Answer: 236 min

Question: Which Kd does the source give for B10 here?
Answer: 0.63 nM

Question: What about the koff of the same binder?
Answer: 0.000112 s⁻¹

Question: And the kon?
Answer: 178000 M⁻¹ s⁻¹

Question: What about the t½ of the same binder?
Answer: 103 min

Question: For B11, which Kd is on record?
Answer: 0.135 nM

Question: What about the koff of the same binder?
Answer: 2.99e-05 s⁻¹

Question: And the kon?
Answer: 220000 M⁻¹ s⁻¹

Question: And the t½?
Answer: 386 min

Question: For B12, which Kd is on record?
Answer: 0.091 nM

Question: And the koff?
Answer: 2.41e-05 s⁻¹

Question: What about the kon of the same binder?
Answer: 260000 M⁻¹ s⁻¹

Question: What about the t½ of the same binder?
Answer: 480 min

Question: Which Kd does the source give for B13 here?
Answer: 0.0601 nM

Question: And the koff?
Answer: 2.5e-05 s⁻¹

Question: And the kon?
Answer: 416000 M⁻¹ s⁻¹

Question: And the t½?
Answer: 462 min

Each binder was assayed against T1, SARS-COV-2 RBD extracellular domain … (assay: Biacore SPR, mAb captured on anti-hFc, 25 C).

Question: Which results are given for B1?
Answer: Kd: 0.0569 nM; koff: 2.12e-05 s⁻¹; kon: 372000 M⁻¹ s⁻¹; t½: 546 min

Question: How did the Kd turn out when B2 was run?
Answer: 0.016 nM

Question: What about the koff of the same binder?
Answer: 1.62e-05 s⁻¹

Question: And the kon?
Answer: 1.02e+06 M⁻¹ s⁻¹

Question: What about the t½ of the same binder?
Answer: 713 min

Question: With B3 as the binder, how does the Kd read?
Answer: 0.129 nM

Question: What about the kon of the same binder?
Answer: 301000 M⁻¹ s⁻¹

Question: What about the t½ of the same binder?
Answer: 298 min

Question: With B4 as the binder, how does the Kd read?
Answer: 0.179 nM

Question: What about the koff of the same binder?
Answer: 0.00023 s⁻¹

Question: And the kon?
Answer: 1.29e+06 M⁻¹ s⁻¹

Question: What about the t½ of the same binder?
Answer: 50.2 min

Question: For B5, which Kd is on record?
Answer: 0.0406 nM

Question: What about the koff of the same binder?
Answer: 1.05e-05 s⁻¹

Question: What about the kon of the same binder?
Answer: 258000 M⁻¹ s⁻¹

Question: What about the t½ of the same binder?
Answer: 1100 min

Question: For B6, which Kd is on record?
Answer: 0.00338 nM

Question: What about the koff of the same binder?
Answer: 3.12e-05 s⁻¹

Question: What about the kon of the same binder?
Answer: 9.24e+06 M⁻¹ s⁻¹

Question: And the t½?
Answer: 370 min

Question: With B7 as the binder, how does the Kd read?
Answer: 0.187 nM

Question: What about the koff of the same binder?
Answer: 6.67e-05 s⁻¹

Question: And the kon?
Answer: 357000 M⁻¹ s⁻¹

Question: What about the t½ of the same binder?
Answer: 173 min

Question: B8 was tested. Which Kd did it give?
Answer: ≤ 0.0221 nM

Question: What about the koff of the same binder?
Answer: ≤ 1e-05 s⁻¹

Question: And the kon?
Answer: 453000 M⁻¹ s⁻¹

Question: What about the t½ of the same binder?
Answer: 1160 min

Question: How did the Kd turn out when B9 was run?
Answer: 0.0119 nM

Question: What about the koff of the same binder?
Answer: 1.26e-05 s⁻¹

Question: And the kon?
Answer: 1.06e+06 M⁻¹ s⁻¹

Question: What about the t½ of the same binder?
Answer: 914 min

Question: Which results are given for B10?
Answer: Kd: 0.0369 nM; koff: 5.22e-05 s⁻¹; kon: 1.41e+06 M⁻¹ s⁻¹; t½: 221 min

Question: B11 was tested. Which Kd did it give?
Answer: 0.0172 nM

Question: And the koff?
Answer: 1.19e-05 s⁻¹

Question: What about the kon of the same binder?
Answer: 691000 M⁻¹ s⁻¹

Question: What about the t½ of the same binder?
Answer: 971 min

Question: How did the Kd turn out when B12 was run?
Answer: ≤ 0.0295 nM

Question: And the koff?
Answer: ≤ 1e-05 s⁻¹

Question: What about the kon of the same binder?
Answer: 339000 M⁻¹ s⁻¹

Question: And the t½?
Answer: 1160 min

Question: With B13 as the binder, how does the Kd read?
Answer: ≤ 0.0108 nM

Question: And the koff?
Answer: ≤ 1e-05 s⁻¹

Question: And the kon?
Answer: 930000 M⁻¹ s⁻¹

Question: And the t½?
Answer: 1160 min
